pEC50: −log10 of the molar value.
Key:
[1] = target: His-tagged CD47 extracellular domain (ECD) protein (Abclonal, CAT #RP01306) (human) (UniProt Q08722); assay: ELISA; pH 6.0; conditions: Fc fusion
[2] = target: His-tagged CD47 extracellular domain (ECD) protein (Abclonal, CAT #RP01306) (human) (UniProt Q08722); assay: ELISA; pH 7.2; conditions: Fc fusion

Sequence of His-tagged CD47 extracellular domain (ECD) protein (Abclonal, CAT #RP01306) (human) (Q08722 19-139): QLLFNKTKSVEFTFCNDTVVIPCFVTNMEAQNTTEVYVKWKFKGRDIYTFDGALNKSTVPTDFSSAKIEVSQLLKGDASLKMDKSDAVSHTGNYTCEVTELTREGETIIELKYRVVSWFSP

Substance	pEC50 [1]	pEC50 [2]
SIN-301, SIRPαV2 K53H IgV-IgG1 Fc	8.87	
SIN-302, SIRPαV2 R69H IgV-IgG1 Fc	7.52	6.80
SIN-304, SIRPαV2 K68H IgV-IgG1 Fc	9.11	

The next substances have a higher pEC50 [1] than those just listed; values first:

pEC50 [1]	pEC50 [2]	Substance
9.18	8.42	SIN-300, wild type SIRPαV2 IgV-IgG1 Fc fusion protein
9.20	8.16	SIN-303, SIRPαV2 Q52H IgV-IgG1 Fc

Reference: US20260274921A1
